B1: ACSBG2 (parent)
chain: FAQADALKGTLVSTLKEVKPTVFI
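Further: lentivirally expressed fusions sorted by FACS into six bins by GFP to DsRed ratio, PSI derived from sequencing read proportions per bin multiplied by bin number.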

Variants of: B1
Assay: protein stability index of a GFP-peptide fusion (GPS, HEK-293T) (PSI 1-6); higher = more stable
Settings: c terminus: a fixed tail appended
Variant FAQADFLKGTLVSTLKEVKPTVFI [A6F] has a protein stability index of 2.84.
FAQADKLKGTLVSTLKEVKPTVFI [A6K] gave a protein stability index of 2.23.
Work on FAQADHLKGTLVSTLKEVKPTVFI [A6H] yielded a protein stability index of 1.61.
FAQADWLKGTLVSTLKEVKPTVFI [A6W] showed a protein stability index of 3.31.
FAQADTLKGTLVSTLKEVKPTVFI [A6T] gave a protein stability index of 2.21.
FAQADELKGTLVSTLKEVKPTVFI [A6E] gave a protein stability index of 1.95.
For FAQADRLKGTLVSTLKEVKPTVFI [A6R], the protein stability index was 1.67.
Variant FAQADDLKGTLVSTLKEVKPTVFI [A6D] has a protein stability index of 1.71.
Work on FAQADPLKGTLVSTLKEVKPTVFI [A6P] yielded a protein stability index of 1.69.
Variant FAQADVLKGTLVSTLKEVKPTVFI [A6V] has a protein stability index of 2.58.
FAQADMLKGTLVSTLKEVKPTVFI [A6M] showed a protein stability index of 1.9.
For FAQADQLKGTLVSTLKEVKPTVFI [A6Q], the protein stability index was 1.54.
In the case of FAQADGLKGTLVSTLKEVKPTVFI [A6G], the protein stability index is reported as 1.57.
FAQADSLKGTLVSTLKEVKPTVFI [A6S] showed a protein stability index of 2.08.
Variant FAQADNLKGTLVSTLKEVKPTVFI [A6N] has a protein stability index of 1.58.
For FAQADILKGTLVSTLKEVKPTVFI [A6I], the protein stability index was 1.34.
FAQADCLKGTLVSTLKEVKPTVFI [A6C] showed a protein stability index of 1.28.
Work on FAQADYLKGTLVSTLKEVKPTVFI [A6Y] yielded a protein stability index of 3.07.
FAQAVALKGTLVSTLKEVKPTVFI [D5V] gave a protein stability index of 2.08.
With FAQAFALKGTLVSTLKEVKPTVFI [D5F] the protein stability index was 3.26.
Variant FAQATALKGTLVSTLKEVKPTVFI [D5T] has a protein stability index of 2.12.
In the case of FAQAQALKGTLVSTLKEVKPTVFI [D5Q], the protein stability index is reported as 2.4.
In the case of FAQANALKGTLVSTLKEVKPTVFI [D5N], the protein stability index is reported as 1.9.
Work on FAQACALKGTLVSTLKEVKPTVFI [D5C] yielded a protein stability index of 1.35.
FAQAIALKGTLVSTLKEVKPTVFI [D5I] gave a protein stability index of 2.7.
With FAQAEALKGTLVSTLKEVKPTVFI [D5E] the protein stability index was 1.26.
Work on FAQAYALKGTLVSTLKEVKPTVFI [D5Y] yielded a protein stability index of 1.44.
For FAQARALKGTLVSTLKEVKPTVFI [D5R], the protein stability index was 1.55.
Work on FAQAKALKGTLVSTLKEVKPTVFI [D5K] yielded a protein stability index of 1.69.
With FAQAPALKGTLVSTLKEVKPTVFI [D5P] the protein stability index was 1.9.
FAQAAALKGTLVSTLKEVKPTVFI [D5A] showed a protein stability index of 3.35.
Work on FAQASALKGTLVSTLKEVKPTVFI [D5S] yielded a protein stability index of 2.67.
FAQAMALKGTLVSTLKEVKPTVFI [D5M] showed a protein stability index of 2.98.
For FAQAHALKGTLVSTLKEVKPTVFI [D5H], the protein stability index was 1.3.
FAQADALKNTLVSTLKEVKPTVFI [G9N] showed a protein stability index of 1.27.
Work on FAQADALKRTLVSTLKEVKPTVFI [G9R] yielded a protein stability index of 2.76.
FAQADALKSTLVSTLKEVKPTVFI [G9S] gave a protein stability index of 2.84.
FAQADALKDTLVSTLKEVKPTVFI [G9D] showed a protein stability index of 1.59.
FAQADALKETLVSTLKEVKPTVFI [G9E] gave a protein stability index of 1.5.
For FAQADALKFTLVSTLKEVKPTVFI [G9F], the protein stability index was 2.24.
Work on FAQADALKCTLVSTLKEVKPTVFI [G9C] yielded a protein stability index of 2.73.
In the case of FAQADALKMTLVSTLKEVKPTVFI [G9M], the protein stability index is reported as 2.03.
With FAQADALKLTLVSTLKEVKPTVFI [G9L] the protein stability index was 2.72.
FAQADALKTTLVSTLKEVKPTVFI [G9T] showed a protein stability index of 1.38.
With FAQADALKPTLVSTLKEVKPTVFI [G9P] the protein stability index was 2.01.
FAQADALKKTLVSTLKEVKPTVFI [G9K] showed a protein stability index of 2.32.
With FAQADALKHTLVSTLKEVKPTVFI [G9H] the protein stability index was 1.55.
In the case of FAQADALKATLVSTLKEVKPTVFI [G9A], the protein stability index is reported as 2.24.
Work on FAQADALKQTLVSTLKEVKPTVFI [G9Q] yielded a protein stability index of 2.52.
With FAQADALKYTLVSTLKEVKPTVFI [G9Y] the protein stability index was 1.78.
Variant FAQADALKITLVSTLKEVKPTVFI [G9I] has a protein stability index of 4.73.
In the case of FAQADALKWTLVSTLKEVKPTVFI [G9W], the protein stability index is reported as 3.93.
With FAQADALKVTLVSTLKEVKPTVFI [G9V] the protein stability index was 2.61.
Variant FAQADALQGTLVSTLKEVKPTVFI [K8Q] has a protein stability index of 2.39.
Variant FAQADALSGTLVSTLKEVKPTVFI [K8S] has a protein stability index of 1.71.
FAQADALPGTLVSTLKEVKPTVFI [K8P] showed a protein stability index of 1.4.
For FAQADALNGTLVSTLKEVKPTVFI [K8N], the protein stability index was 1.59.
Work on FAQADALMGTLVSTLKEVKPTVFI [K8M] yielded a protein stability index of 1.22.
Work on FAQADALGGTLVSTLKEVKPTVFI [K8G] yielded a protein stability index of 2.31.
For FAQADALEGTLVSTLKEVKPTVFI [K8E], the protein stability index was 1.41.
FAQADALDGTLVSTLKEVKPTVFI [K8D] gave a protein stability index of 1.9.
For FAQADALYGTLVSTLKEVKPTVFI [K8Y], the protein stability index was 3.
For FAQADALTGTLVSTLKEVKPTVFI [K8T], the protein stability index was 3.3.
For FAQADALCGTLVSTLKEVKPTVFI [K8C], the protein stability index was 1.85.
FAQADALRGTLVSTLKEVKPTVFI [K8R] gave a protein stability index of 1.8.
FAQADALFGTLVSTLKEVKPTVFI [K8F] gave a protein stability index of 2.34.
For FAQADALHGTLVSTLKEVKPTVFI [K8H], the protein stability index was 2.74.
FAQADALAGTLVSTLKEVKPTVFI [K8A] showed a protein stability index of 2.12.
Work on FAQADALKGTEVSTLKEVKPTVFI [L11E] yielded a protein stability index of 2.88.
With FAQADALKGTQVSTLKEVKPTVFI [L11Q] the protein stability index was 2.88.
FAQADALKGTHVSTLKEVKPTVFI [L11H] showed a protein stability index of 1.72.
Work on FAQADALKGTPVSTLKEVKPTVFI [L11P] yielded a protein stability index of 1.84.
In the case of FAQADALKGTSVSTLKEVKPTVFI [L11S], the protein stability index is reported as 1.61.
With FAQADALKGTNVSTLKEVKPTVFI [L11N] the protein stability index was 2.1.
For FAQADALKGTCVSTLKEVKPTVFI [L11C], the protein stability index was 1.72.
Work on FAQADALKGTFVSTLKEVKPTVFI [L11F] yielded a protein stability index of 1.7.
In the case of FAQADALKGTAVSTLKEVKPTVFI [L11A], the protein stability index is reported as 1.88.
Variant FAQADALKGTIVSTLKEVKPTVFI [L11I] has a protein stability index of 2.55.
In the case of FAQADALKGTMVSTLKEVKPTVFI [L11M], the protein stability index is reported as 2.41.
For FAQADALKGTKVSTLKEVKPTVFI [L11K], the protein stability index was 1.67.
FAQADALKGTDVSTLKEVKPTVFI [L11D] gave a protein stability index of 2.02.
With FAQADALKGTRVSTLKEVKPTVFI [L11R] the protein stability index was 2.13.
For FAQADALKGTGVSTLKEVKPTVFI [L11G], the protein stability index was 1.51.
With FAKADALKGTLVSTLKEVKPTVFI [Q3K] the protein stability index was 2.06.
For FAIADALKGTLVSTLKEVKPTVFI [Q3I], the protein stability index was 4.29.
FAMADALKGTLVSTLKEVKPTVFI [Q3M] showed a protein stability index of 3.51.
For FARADALKGTLVSTLKEVKPTVFI [Q3R], the protein stability index was 2.92.
With FAYADALKGTLVSTLKEVKPTVFI [Q3Y] the protein stability index was 1.45.
Work on FATADALKGTLVSTLKEVKPTVFI [Q3T] yielded a protein stability index of 1.8.
Variant FAEADALKGTLVSTLKEVKPTVFI [Q3E] has a protein stability index of 1.74.
FAAADALKGTLVSTLKEVKPTVFI [Q3A] gave a protein stability index of 1.86.
In the case of FASADALKGTLVSTLKEVKPTVFI [Q3S], the protein stability index is reported as 1.28.
With FAVADALKGTLVSTLKEVKPTVFI [Q3V] the protein stability index was 3.21.
Work on FANADALKGTLVSTLKEVKPTVFI [Q3N] yielded a protein stability index of 3.49.

Source: the supplement of paper PMC10567573
